For the test, the target named is recombinant human ANGPT2 (full-length ANGPT2-His protein, R&D Systems) (human) (UniProt O15123). The experiment in a line: cellular FACS IGF-1R-ANGPT2 bridging assay on I24 cells with purified Bispecific VL-VH/CL-CH1 exchange mix and 2 µg/mL hANGPT2; isotype control in place of <Ang-2>mIgG1-Biotin, SA-PE (FL2-H).
UniProt O15123, sequence (O15123 19-496 limits assumed): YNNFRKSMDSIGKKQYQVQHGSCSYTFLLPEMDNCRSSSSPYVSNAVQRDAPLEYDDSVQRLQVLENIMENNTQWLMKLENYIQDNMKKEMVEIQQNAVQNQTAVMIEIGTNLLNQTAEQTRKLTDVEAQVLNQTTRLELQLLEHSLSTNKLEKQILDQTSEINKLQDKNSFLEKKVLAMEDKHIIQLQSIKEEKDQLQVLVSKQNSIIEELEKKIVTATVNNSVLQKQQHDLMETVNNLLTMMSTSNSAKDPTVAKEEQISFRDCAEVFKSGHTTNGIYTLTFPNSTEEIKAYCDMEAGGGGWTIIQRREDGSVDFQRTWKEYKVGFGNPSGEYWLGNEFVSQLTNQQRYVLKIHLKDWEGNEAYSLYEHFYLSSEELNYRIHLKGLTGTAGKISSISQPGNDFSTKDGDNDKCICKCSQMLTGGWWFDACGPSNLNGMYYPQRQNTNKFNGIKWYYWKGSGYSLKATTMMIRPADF

Turning to mIgG1-Biotin-Isotype control (antibody), the Mean was 8.7.

Values taken from patent US20090232811A1.
